Measured values from US10000775B2, “Biosynthesis of 1-undecene and related terminal olefins” (The Regents of the University of California, priority 2013, dated 2018).

Key:
E. coli = assay: 1-undecene production in E. coli overexpressing PFL_4321, PFL_0203 or homologs, with or without UcFatB2; format: cell-based; conditions: E. coli BL21 Star (pZR60), headspace GC-MS
Description: E. coli, P. aeruginosa PAO-1, and P. aeruginosa PA14 strains were grown in 5 mL of LB medium overnight at 37° C., while all the other Pseudomonas and Acinetobacter strains were grown at 30° C. […] The culture was shaken in a sealed 20 mL headspace vial (Agilent certified) containing a stir bar at 30° C. for 36 hr. After incubation, an SPME fiber (30 μm polydimethylsiloxane, Supelco, Sigma-Aldrich Group, Bellefonte, Pa.) was manually inserted into the headspace vial and incubated at 25° C. for 12.5 min. GC-MS analysis was conducted on a Varian CP-3800 instrument equipped with a Varian 320-MS. […] The signals of the 1-alkenes were identified and quantified by comparison with authentic samples (MP Biomedicals), which were diluted in ethyl acetate, added to 5 mL of culture medium in a sealed headspace vial, and sampled by the same SPME-GCMS method as described above.
[…] 1-Undecene production was detected by using the SPME-GCMS method. […]
To investigate whether PFL_0203 was facilitating the production of 1-undecene, this gene was individually expressed in E. coli and the cells were monitored for 1-undecene production. […]

[1] = In vitro activity of PFL_4321 and PFL_0203 toward fatty acids with various chain lengths; format: biochemical; design: key to In vitro activity toward C8:0 / In vitro activity toward C10:0 / In vitro activity toward C12:0 / In vitro activity toward C14:0 / In vitro activity toward C16:0: ✓: indicates production of the corresponding 1-alkene from the indicated substrate; x: indicates failure to produce the corresponding 1-alkene from the indicated substrate
Description: A typical condition is as follows: 1 mL of reaction mixture contains 50 mM MES buffer (pH 6.2), 300 mM NaCl, 100 μM (NH4)2Fe(SO4)2, 1 mM ascorbic acid, 100 μM fatty acid substrate or analogs, and 10 μM enzyme. The reaction was performed in a sealed headspace vial at 30° C., initiated by adding lauric acid and quenched by injecting equal volume of 5 M NaOH. 1-Undecene production was analyzed and quantified by using the SPME-GCMS method. To determine the kinetic parameters of PFL_4321 on lauric acid, initial velocities at 1, 10, 20, 50, 100, and 150 μM of lauric acid were measured (25 mM lauric acid solution was prepared by adding 0.5% tergitol and heating at 65° C. for 10 min). The reactions were quenched at 2, 4, 6, 8, and 10 seconds, and the acquired turnover rates were fit to the Michaelis-Menten equation using GraphPad Prism to obtain kcat and Km. The kcat and Km of myristic acid and capric acid were determined similarly.
Unless otherwise noted, all experiments with PFL_0203 as described herein were performed using similar assays, procedures, and techniques as used in a given corresponding experiment as described in Example 1.
The fatty acid substrate specificity of PFL_0203 was investigated in a series of in vitro experiments. […] Thus, PFL_4321 and PFL_0203 share some overlap in suitable substrates; PFL_4321 is able to act on C10-C14 fatty acid substrates, and PFL_0203 is able to act on C10-C16 fatty acid substrates.

[2] = Initial production rate determination under single turnover conditions; format: biochemical; conditions: single turnover condition
Description: To determine the initial rates of 1-alkene production under the single turnover conditions, the O2-saturated buffer solution (50 mM MES, pH 6.2, 100 mM NaCl) was mixed with an equal volume of an O2-free solution containing 50 mM MES buffer (pH 6.2), 100 mM NaCl, 200 μM (NH4)2Fe(SO4)2, 0.2-20 μM PFL_4321, and various concentrations of substrate (2-300 μM), so that the final mixture contained 50 mM MES buffer (pH 6.2), 100 mM NaCl, 0.1-10 μM PFL_4321, 100 μM (NH4)2Fe(SO4)2, and various concentrations of substrate (1-150 μM). The reactions were carried out in sealed GC vials and quenched by injecting 1 M NaOH at 2, 4, 6, 8, 10, 20, 30, 40, 50, 60 seconds. The productions of 1-alkenes were analyzed by SPME-GCMS analysis.

B1: PFL_4321: protein of 261 amino acids from Pseudomonas fluorescens Pf-5; non-heme iron (II)-dependent enzyme converting medium-chain fatty acids into terminal olefins (protein, listed as Pseudomonas fluorescens)
chain: MIDTFSRTGPLMEAASYPAWTQQLIQDCSESKRRVVEHELYQRMRDNKLSAKVMRQYLIGGWPVVEQFALYMAQNLTKTRFARHPGEDMARRWLMRNIRVELNHADYWVHWSRAHGVTLEDLQAQQVPPELHALSHWCWHTSSADSLIVAIAATNYAIEGATGEWSALVCSNGIYAAAFPEEDRKRAMKWLKMHAQYDDAHPWEALEIIVTLAGLNPTKALQAELRQAICKSYDYMYLFLERCMQQEKTAVTRERLALAEG
Question: What does the source list for B1?
Answer: 1-undecene produced (E. coli): ~5 µg/mL; In vitro activity toward C8:0 ([1]; substrate C8:0): x; In vitro activity toward C10:0 ([1]; substrate C10:0): ✓; In vitro activity toward C12:0 ([1]; substrate C12:0): ✓; In vitro activity toward C14:0 ([1]; substrate C14:0): ✓; In vitro activity toward C16:0 ([1]; substrate C16:0): x; initial rate of 1-undecene production [2]: 0.06±0.002 mol 1-undecene/(mol PFL_4321-Fe(II) second)
